The text below walks through data of patent US20240301076A1 (CEPHALON, published 2024).

Where a chain is given by its changes, count along the chain named. In names and notes the source's numbering stands. Several values for one entry are separate records, joined by “and”; a condition that tells them apart may be missing. Equal values may be shown once. Read-outs that look alike come from different tables or passages of the source.

In assay [1] the target is T1, human CXCR1 (human, UniProt P25024 1-350).
T1 sequence: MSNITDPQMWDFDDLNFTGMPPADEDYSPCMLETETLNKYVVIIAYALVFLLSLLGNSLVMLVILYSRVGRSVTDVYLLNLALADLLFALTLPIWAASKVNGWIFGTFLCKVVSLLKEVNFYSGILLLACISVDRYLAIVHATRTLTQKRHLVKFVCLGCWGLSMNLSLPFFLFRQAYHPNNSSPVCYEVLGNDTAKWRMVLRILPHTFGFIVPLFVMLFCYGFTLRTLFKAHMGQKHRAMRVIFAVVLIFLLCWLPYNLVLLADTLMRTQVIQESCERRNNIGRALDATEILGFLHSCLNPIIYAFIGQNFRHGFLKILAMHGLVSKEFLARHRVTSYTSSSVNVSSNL
The assay is described as follows: flow cytometry, transfected Expi293F cells. As to the method:
(§1) Harvested cells were resuspended in FACS buffer (1×PBS+0.5% (w/v) bovine serum albumin (BSA)+2 mM EDTA pH 7.2). Approximately 2×10⁵ cells were added per well in a 96-well round-bottomed plate. Cells were pelleted by centrifugation at 400 g for 5 mins at 4° C. and supernatants discarded. 25 μL of each test antibody or control antibody was added to the cells and incubated for 30 minutes at 4° C. Cells were washed twice in 100 μL FACS buffer followed by centrifugation at 400 g for 5 mins at 4° C.
(§2) For detection, 50 μL of secondary antibody (Table 2) was added to relevant samples. Commercially available antibodies that bound to transfected CXCR family members were used as positive controls to ensure that the cells were expressing the receptors. Cells were washed twice in 200 μL of FACS buffer followed by centrifugation at 400 g for 5 mins at 4° C. Before sample acquisition, cells were resuspended in 100 μL of FACS buffer. Samples were acquired using the high throughput sampler on a FACSCanto™ II cytometer (Beckton-Dickinson).
(§3) These antibody variable regions were then generated by gene synthesis and subcloned into mammalian expression vectors as described in General Methods. Antibodies were produced by co-expression of heavy and light chain plasmids in Expi293F™ cells and purified by protein A column chromatography as described in General Methods. Where several heavy and/or light chains were identified from the same hybridoma cells, each heavy chain was paired with each light chain and the resulting antibodies given suffix a, b, c, etc. Purified antibodies were desalted into Sorensen's PBS pH 5.8 and tested by flow cytometry for binding to Expi293F™ cells transfected with human CXCR2 or human CXCR1 and mock transfected Expi293F™ cells.
In general terms: Flow cytometry measures light scatter and fluorescence of single cells or particles in a stream.

Assay [2] concerns the target T2, human CXCR2 (human, UniProt P25025 1-360).
T2 construct: also called CXC chemokine receptor 2; hCXCR2
T2 sequence: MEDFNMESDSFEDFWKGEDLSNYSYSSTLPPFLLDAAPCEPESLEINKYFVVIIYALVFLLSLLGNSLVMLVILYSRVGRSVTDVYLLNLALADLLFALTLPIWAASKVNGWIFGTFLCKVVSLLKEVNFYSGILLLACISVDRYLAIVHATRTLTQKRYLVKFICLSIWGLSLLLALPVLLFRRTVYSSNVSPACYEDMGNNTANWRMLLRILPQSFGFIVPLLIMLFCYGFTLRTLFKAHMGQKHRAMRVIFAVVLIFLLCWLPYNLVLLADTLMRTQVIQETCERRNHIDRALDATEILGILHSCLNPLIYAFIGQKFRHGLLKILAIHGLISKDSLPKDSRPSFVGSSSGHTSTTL
The assay can be described thus: flow cytometry, transfected Expi293F cells. As to the method:
as §1, §2, §3

In assay [3] the target is T3, cynomolgus monkey CXCR2 (cynomolgus monkey, UniProt Q28519 3-353 (rhesus entry)).
T3 construct: native on cynomolgus blood cells in the entries below; also called cynomolgus CXCR2
T3 chain: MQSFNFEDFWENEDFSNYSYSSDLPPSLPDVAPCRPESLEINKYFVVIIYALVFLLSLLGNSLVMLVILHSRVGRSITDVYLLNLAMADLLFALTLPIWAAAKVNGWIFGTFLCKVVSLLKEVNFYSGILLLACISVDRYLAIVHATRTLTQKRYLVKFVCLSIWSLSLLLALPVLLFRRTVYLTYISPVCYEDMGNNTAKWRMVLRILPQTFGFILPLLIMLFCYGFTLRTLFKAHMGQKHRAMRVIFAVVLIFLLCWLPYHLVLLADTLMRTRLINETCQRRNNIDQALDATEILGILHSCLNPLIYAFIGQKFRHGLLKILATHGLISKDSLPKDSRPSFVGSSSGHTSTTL
The assay can be described thus: flow cytometry, native CXCR2 on cynomolgus PBMC preparations. Here is the method:
Whole human buffy coat, PBMC enriched fractions prepared from human peripheral blood buffy coat or cynomolgus monkey whole blood was used for analysis of antibody binding activity by flow cytometry. Briefly, blood was untreated or diluted 1:1 in sterile filtered room temperature phosphate-buffered saline (PBS). 30 mL samples were layered over 15 mL Lymphoprep™ (Stem Cell Technologies, cat #07851). Peripheral blood mononuclear cells (PBMC) were enriched by room temperature centrifugation at 700 g for 30 minutes with no braking. The PBMC layer was isolated and cells washed in PBS containing 2 mM EDTA with low speed centrifugation at 200 g, to remove platelet contamination. Whole blood or PBMC enriched cell fractions were resuspended in red blood cell lysing solution (BioLegend, 420301). Viable cell counts were determined and cells resuspended at 1×10⁷ cells per mL in FACS buffer (1×PBS+0.5% (w/v) BSA+2 mM EDTA pH 7.2).
Flow cytometry binding assays using whole blood or PBMC enriched preparations: Binding assays to detect CXCR2 on blood neutrophil populations using test antibodies were performed essentially as described for assays using transiently transfected Expi293F™ cells. […] Matched isotype control antibodies were included for comparison. […] Neutrophil populations were identified by characteristic granularity and size, and positive binding of commercially available antibodies against CD10 (Biolegend, clone Hl10a, catalogue number 312204). Cells were washed and fixed (BioLegend Fixation buffer, 420801) prior to analysis. The level of fluorescence on the cell surface was measured by flow cytometry.

Assay [4] addresses T2, human CXCR2. The assay is described as follows: cell-based or functional assay.
For assay [5], the target named is T2, human CXCR2. The assay can be described thus: flow cytometry, CXCR2-transfected Expi293F cells. As to the method:
as §1, §2
Each heavy chain was co-expressed with each light chain to produce a sequence optimized antibody variant. Antibodies were purified and tested for CXCR2 binding activity as described in General Methods.

Assay [6] concerns the target T2, human CXCR2. The assay is described as follows: cell-based or functional assay. The source holds these as a separate data set.
Assay [7] has as its target T2, human CXCR2. The assay can be described thus: flow cytometry, CXCR2-transfected Expi293F cells. As to the method:
as §1, §2
A further six heavy chain combinational variants comprising four or more amino acid substitutions were produced as provided in Table 12. […] Each heavy chain was co-expressed with light chain c (SEQ ID NO:110) to produce an antibody variant. Antibodies were purified and tested for CXCR2 binding activity as described in General Methods.
This is another data set of the same source.

For assay [8], the target named is T2, human CXCR2. The assay can be described thus: cell-based or functional assay. The source holds these as a separate data set.
Assay [9] addresses T2, human CXCR2. The assay can be described thus: cell-based or functional assay. The source holds these as a separate data set.
Assay [10] concerns the target T2, human CXCR2. The assay is described as follows: cell-based or functional assay. This is another data set of the same source.
Assay [11] concerns the target T2, human CXCR2. The assay can be described thus: cell-based or functional assay. This is another data set of the same source.

B1: BKO-8G3_b (antibody, human IgG4 S228P, lambda, V domains shown)
VH: EVQLLESGGGLVQPGGSLRLSCAASGFTFSSYAMSWVRQAPGKGLEWVSAITGSGGSTYYADSVKGRFTISRDKSKNTLYLQMNSLRAEDTAVYYCAIRLGYWGQGSLVTVSS
VL: QSALTQPPSASGSPGQSVTISCTGTSSDVGGYNYVSWYQQHPGKVPKLVIYEVSKRPSGVPDRFSGSKSGNTASLTVSGLQAEDEADYYCSSYAGSNNFGVFGGGTKLTVLG
notes: recombinant human IgG4 S228P, lambda
For B1, the results for the binding result in assay [1], in [2] and in [3] were “no binding”, “binds” and “binds”, respectively.

B2: BKO-9C3_a (antibody, human IgG4 S228P, lambda, V domains shown)
VH: B1 VH with L4V, S30R, T52S, R99Q, S107T
VL: B1 VL with T19I, V49M, S91T
notes: as for B1
B2: the figures for the binding result in assay [1], in assay [2] and in assay [3] were “no binding”, “binds” and “binds”, respectively.

B3: BKO-4A8 (antibody, human IgG4 S228P, lambda)
heavy: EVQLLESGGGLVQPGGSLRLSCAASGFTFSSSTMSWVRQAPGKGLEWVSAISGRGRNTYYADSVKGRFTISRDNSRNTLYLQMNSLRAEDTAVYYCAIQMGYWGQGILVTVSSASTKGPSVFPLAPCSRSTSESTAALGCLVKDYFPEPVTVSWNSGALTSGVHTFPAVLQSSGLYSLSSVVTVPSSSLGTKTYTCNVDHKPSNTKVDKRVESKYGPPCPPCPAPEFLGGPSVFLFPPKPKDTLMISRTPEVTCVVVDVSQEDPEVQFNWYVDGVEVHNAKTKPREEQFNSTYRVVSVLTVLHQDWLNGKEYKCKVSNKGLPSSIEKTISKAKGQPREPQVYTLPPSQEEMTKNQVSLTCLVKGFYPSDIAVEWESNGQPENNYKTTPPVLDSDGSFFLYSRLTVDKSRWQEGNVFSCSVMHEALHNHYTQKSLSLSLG
light: QSALTQPPSASGSPGQSVTISCIGTSSDVGGYNYVSWYQQHPDKAPKLMIYEVNKRPSGVPDRFSGSKSGNTASLTVSGLQAEDEADYYCSSYAGNNNFGVFGGGTKLTVLGQPKAAPSVTLFPPSSEELQANKATLVCLISDFYPGAVTVAWKADSSPVKAGVETTTPSKQSNNKYAASSYLSLTPEQWKSHRSYSCQVTHEGSTVEKTVAPTECS
notes: recombinant human IgG4 S228P, lambda; also called BKO-4A8 IgG4; parental BKO-4A8
As a reminder, the EC50 is the concentration that produces a half-maximal response. Take B3: the binding result in assay [1] is “no binding”. Moreover, in assay [4], the “IC50, CXCL1, Tango assay” value is 177 pM and the “IC50, CXCL8, Tango assay” value turned out to be 112 pM. Also, the EC50 in [5] is 400 pM and 500 pM and 600 pM and 900 pM. Also, the binding result in assay [3] is given as “binds”. In [6], the “CXCL1 IC50, Tango assay” value amounted to 94000 pM and the “CXCL8 IC50, Tango assay” value is 660 pM. The EC50 in [7] was 1580 pM and 3820 pM.

B4: BKO-4A8-101c (antibody, human IgG4 S228P, lambda, V domains shown)
VH: EVQLLESGGGLVQPGGSLRLSCAASGFTFSSSTQSWVRQPPGKGLEWVSAISGRGRSTYYADSVKGRFTISRDNSKNTLYLQMNSLRAEDTAVYYCAIQAGYWGQGILVTVSS
VL: B1 VL with T23I, V45A, V49M
B4: the “CXCL1 IC50, calcium flux” value in assay [8] came to 1470 pM. In addition, in assay [9], the “IC50 mean, Hu CXCL1, Tango β-arrestin” value amounted to 270 pM; the “IC50 mean, Hu CXCL2, Tango β-arrestin” value amounted to 360 pM; the “IC50 mean, Hu CXCL3, Tango β-arrestin” value was found to be 390 pM; the “IC50 mean, Hu CXCL5, Tango β-arrestin” value stood at 300 pM. In addition, in assay [9], the “IC50 mean, Hu CXCL6, Tango β-arrestin” value was 280 pM; the “IC50 mean, Hu CXCL7, Tango β-arrestin” value is 440 pM; the “IC50 mean, Hu CXCL8, Tango β-arrestin” value is 340 pM. In addition, in [6], the “CXCL1 Fold Improvement over 4A8 WT” value was found to be 1.49 fold; the “CXCL1 IC50, Tango assay” value was found to be 630 pM; the “CXCL8 Fold Improvement over 4A8 WT” value came to 2.39 fold; the “CXCL8 IC50, Tango assay” value was found to be 280 pM. Further, in assay [7], the EC50 was 3050 pM, the “Max binding (MFI Percent of 4A8 WT)” value worked out at 89% and the “Max binding (MFI)” value worked out at 55000 MFI. Also, in assay [10], the “CXCL1 IC50, β-arrestin recruitment” value came to 380 pM; the “CXCL5 IC50, β-arrestin recruitment” value is 340 pM; the “CXCL8 IC50, β-arrestin recruitment” value was found to be 340 pM. Besides, in assay [11], the “IC50 mean, Hu CXCL1, calcium flux” value was 1550 pM; the “IC50 mean, Hu CXCL2, calcium flux” value amounted to 1620 pM; the “IC50 mean, Hu CXCL3, calcium flux” value came out at 630 pM; the “IC50 mean, Hu CXCL5, calcium flux” value stood at 1030 pM. Besides, in [11], the “IC50 mean, Hu CXCL6, calcium flux” value was 1710 pM and the “IC50 mean, Hu CXCL7, calcium flux” value is 2140 pM.
